Starred links: 1 amine or outer side, 2 acyl side, 3 side chain; linkers in the order of their positions; H or OH if unused. Non-standard residues stand in square brackets, D forms with d. Groups on a side chain read outwards from the residue. *: point of attachment. TTDS = 4-[3-[2-[2-(3-aminopropoxy)ethoxy]ethoxy]propylamino]-4-oxo-butanoyl; γGlu = O=C(O)[C@H](CCC(=O)[*:2])N[*:1]; Stearoyl = CCCCCCCCCCCCCCCCCC(=O)*; Palmitoyl = CCCCCCCCCCCCCCCC(=O)*; αMeK = C[C@](N)(CCCCN)C(=O)O; Aib = CC(C)(N)C(=O)O
T1: RXFP1 receptor (endogenous, on OVCAR5 cells) (UniProt Q9HBX9 1-757, limits assumed)
T1 sequence (looked up): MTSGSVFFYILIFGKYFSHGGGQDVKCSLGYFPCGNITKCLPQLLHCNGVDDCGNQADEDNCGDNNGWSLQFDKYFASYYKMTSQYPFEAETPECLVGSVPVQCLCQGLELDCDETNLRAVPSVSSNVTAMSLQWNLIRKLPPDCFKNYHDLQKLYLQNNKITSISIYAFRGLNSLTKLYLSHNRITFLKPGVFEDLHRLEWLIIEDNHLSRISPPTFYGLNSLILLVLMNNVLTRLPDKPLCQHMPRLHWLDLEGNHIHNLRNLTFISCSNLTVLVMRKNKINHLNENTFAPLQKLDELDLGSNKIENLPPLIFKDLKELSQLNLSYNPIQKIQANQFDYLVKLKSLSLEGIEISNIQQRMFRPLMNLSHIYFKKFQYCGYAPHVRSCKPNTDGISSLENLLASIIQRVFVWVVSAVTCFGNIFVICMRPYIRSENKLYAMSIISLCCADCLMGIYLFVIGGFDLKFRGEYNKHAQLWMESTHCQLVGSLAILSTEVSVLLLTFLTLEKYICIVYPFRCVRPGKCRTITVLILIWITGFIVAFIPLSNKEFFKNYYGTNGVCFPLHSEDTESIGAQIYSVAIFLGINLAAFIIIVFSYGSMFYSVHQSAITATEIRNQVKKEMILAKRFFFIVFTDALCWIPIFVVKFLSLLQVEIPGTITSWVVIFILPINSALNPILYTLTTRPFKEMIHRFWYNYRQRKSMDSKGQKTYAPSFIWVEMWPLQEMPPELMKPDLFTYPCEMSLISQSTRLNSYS


Target: T1, RXFP1 receptor (endogenous, on OVCAR5 …)
Assay: cell-based or functional assay

Binder | EC50 (nM), OVCAR 5 cells (cAMP) [nM] | EMax, OVCAR 5 cells (cAMP) [%]
Ac-LEGREKVRAK(Ac)I[Aib]IEGK([TTDS-TTDS-TTDS-γGlu-γGlu-γGlu-Palmitoyl])STWS[Aib]RKK(Ac)-NH2 [peptide of SEQ ID NO: 70] | 1.34 | 94
Ac-LEGREKVRAK(Ac)I[Aib]IEGK([TTDS-TTDS-TTDS-TTDS-γGlu-γGlu-γGlu-Palmitoyl])STWS[Aib]RKK(Ac)-NH2 [peptide of SEQ ID NO: 74] | 0.54 | 94
Ac-LEGREKVRAK(Ac)I[Aib][Aib]EGK([TTDS-TTDS-TTDS-γGlu-γGlu-γGlu-Stearoyl])STFS[αMeK]RAK(Ac)-NH2 [peptide of SEQ ID NO: 7] | 0.07 | 95
Ac-LEGREKVRAK(Ac)I[Aib][Aib]EGK([TTDS-TTDS-TTDS-γGlu-γGlu-γGlu-Palmitoyl])STWS[Aib]RK(Ac)R-NH2 [peptide of SEQ ID NO: 69] | 0.78 | 97
Ac-LEGRERVRAK(Ac)I[Aib][Aib]EGK([TTDS-TTDS-TTDS-γGlu-γGlu-γGlu-Palmitoyl])STWS[Aib]RKK(Ac)-NH2 [peptide of SEQ ID NO: 67] | 0.48 | 95
Ac-LEGRERVRAK(Ac)I[Aib][Aib]EGK([TTDS-TTDS-TTDS-TTDS-γGlu-γGlu-γGlu-Palmitoyl])STWS[Aib]RRK(Ac)-NH2 [peptide of SEQ ID NO: 75] | 0.19 | 97

Further lines, results first:

EC50 (nM), OVCAR 5 cells (cAMP) [nM] | EMax, OVCAR 5 cells (cAMP) [%] | Binder
0.18 | 96 | Ac-LEGRERVRAK(Ac)I[Aib][Aib]EGK([TTDS-TTDS-TTDS-γGlu-γGlu-γGlu-Palmitoyl])STFS[Aib]RRK(Ac)-NH2 [peptide of SEQ ID NO: 76]
6.31 | 93 | Ac-LEGREKVRAK(Ac)I[Aib][Aib]EGK([TTDS-TTDS-TTDS-γGlu-γGlu-γGlu-Palmitoyl])STWK(Ac)[Aib]RAK(Ac)-NH2 [peptide of SEQ ID NO: 66]
0.88 | 98 | Ac-LEGREKVRAK(Ac)I[Aib][Aib]EGK([TTDS-TTDS-TTDS-γGlu-γGlu-γGlu-Palmitoyl])STWS[Aib]RK(Ac)K-NH2 [peptide of SEQ ID NO: 68]
0.2 | 95 | Ac-LEGREKVRAK(Ac)I[Aib][Aib]EGK([TTDS-TTDS-TTDS-γGlu-γGlu-γGlu-Palmitoyl])SKWS[Aib]RAK-NH2 [peptide of SEQ ID NO: 73]
0.56 | 91 | Ac-LEGREKVRAK(Ac)I[Aib][Aib]EGK([TTDS-TTDS-TTDS-γGlu-γGlu-γGlu-Palmitoyl])STF[Aib]RRAK(Ac)-NH2 [peptide of SEQ ID NO: 72]
0.11 | 98 | Ac-LEGRERVRAK(Ac)I[Aib][Aib]EGK([TTDS-TTDS-TTDS-TTDS-γGlu-γGlu-γGlu-Palmitoyl])STFS[Aib]RRK(Ac)-NH2 [peptide of SEQ ID NO: 77]
0.36 | 95 | Ac-LEGREKVRAK(Ac)I[Aib][Aib]EGK([TTDS-TTDS-TTDS-γGlu-γGlu-γGlu-Palmitoyl])STWS[Aib]RAK-NH2 [peptide of SEQ ID NO: 71]

From patent publication US20190233494A1 (Sanofi, published 2019)
